Experimental data reported in the supplement of paper PMC9170038.

Test system: MS2 coat protein
Assay: apparent KD of MS2 coat protein; designed switch direction (-1 OFF switch, 1 ON switch): -1; higher = weaker reporter binding
In short: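 Apparent KD, taken as the median over clusters for each design, was obtained by curve-fitting normalised cluster fluorescence. Designed RNA switches had been transcribed on Illumina chips by stalled E. coli RNA polymerase and titrated with SNAP-549-labelled MS2 coat protein, doubling from 0.7 or 1.5 nM to 3 µM.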

[1] = Eterna round: R95, input ligand: microRNA oligo, concentration not stated
[2] = input ligand: microRNA oligo, concentration not stated
[3] = Eterna round: R95, input ligand: FMN 200 uM
[4] = Eterna round: R95, input ligand: none

## GAUUUAGAGCAGGAUAUCAUAGAAUUAUAUGAAUGAGAAGGGCUCACAUGAGGAUCACCCAUGUGGUCCUAGAU [JL Dibiri mod 22] (puzzle: Exclusion 6)
[1]
  apparent KD of MS2 coat protein: 22.8 nM

## GAAUGAGAGCAGGAUAUCUUAUAAAUAUAUGAAAGAGAAGGGCUCACAUGAGGAUCACCCAUGUGGUCCUAGAU [jl-ex6-4.75 jandersonlee mod] (Eterna round: R97, puzzle: Exclusion 6)
Input ligand: FMN 200 uM
  apparent KD of MS2 coat protein: 443 nM
Input ligand: none
  apparent KD of MS2 coat protein: 42.9 nM

## GAAAACGCAGAGGAUAUAUCAGAUCAAAGCUGCAUAGAAGGCUGCACAUGAGGAUCACCCAUGUGGUCUUCAAA [jl-ex6-4.01 ViennaUCT mod] (Eterna round: R97, puzzle: Exclusion 6)
Input ligand: FMN 200 uM
  apparent KD of MS2 coat protein: 243 nM
Input ligand: none
  apparent KD of MS2 coat protein: 20.9 nM

## GCGCCAUCGUGAGAUGGCGUAACUACAUGAGGAUCACCCAUGUAGGAUAUCGAUUGCUUUGCAGUCGAGAAGGGCGAGGGAUUU [JL ENG3 3.89] (Eterna round: R96, puzzle: Exclusion NG 3)
Input ligand: FMN 200 uM
  apparent KD of MS2 coat protein: 18.1 nM
[2]
  apparent KD of MS2 coat protein: 13.2 nM
Input ligand: none
  apparent KD of MS2 coat protein: 17.6 nM

## UUGUUGUAUGUAGGAUAUGCAUAUUAUUAUUAUGCAGAAGGACAUGAGGAUCACCCAUGUAUGUUAUUAUUAUAUGUUAUAUAU [Title] (Eterna round: R96, puzzle: Exclusion NG 1)
[2]
  apparent KD of MS2 coat protein: 21.3 nM

## GUGCCGCGAGGAUAUACAGACGGGUCCAAUACGUGUCUCGGACUUGAGGAUCACCCAAGUAGAAGGCUUUUCAG [LRO-Excl2-11-mod _r4_621 by salish99] (Eterna round: R97, puzzle: Exclusion 2)
Input ligand: FMN 200 uM
  apparent KD of MS2 coat protein: 27.7 nM
Input ligand: none
  apparent KD of MS2 coat protein: 27.7 nM

## UAGUGACAUGAGGAUCACCCAUGUGAGGAUAUAGUAGGAGUAAAGAGGAAAGAGAGAACUAGAAGGCACAGUGA [JR_Exclu1_Sub031] (puzzle: Exclusion 1)
[3]
  apparent KD of MS2 coat protein: 80 nM
[1]
  apparent KD of MS2 coat protein: 48.4 nM
[4]
  apparent KD of MS2 coat protein: 51.4 nM

## UUUGUCAGCGUCGAAGUUUACAUGAGGAUCACCCAUGUGAUCAACACAGGCAUAUAAUUAGUAAUGAGUUCGUCUUC [Eternabot (L2) Solution 40] (Eterna round: R97, puzzle: Sensor, turn-off variant 1)
Input ligand: FMN 200 uM
  apparent KD of MS2 coat protein: 24.9 nM
Input ligand: none
  apparent KD of MS2 coat protein: 30.2 nM

## AAGUAUAGAGGAUAUAGUGAGUACUACAUGAGGAUCACCCAUGUUCUUCACAGCGUAUUUCUAGAAGGCUGUUAAA [EX-5 Malc#19] (puzzle: Exclusion 5)
[3]
  apparent KD of MS2 coat protein: 29.6 nM
[1]
  apparent KD of MS2 coat protein: 26.5 nM
[4]
  apparent KD of MS2 coat protein: 26.4 nM

## AGUCAGGCGGUAGGAUAUCCAAAUCGAGUGACCCUCUCAUAACAUGAGGAUCACCCAUGUCGGUGGGAGAAGGGCCGUACGGCG [JL ViennaUCT Atra mod] (Eterna round: R96, puzzle: Exclusion NG 2)
Input ligand: FMN 200 uM
  apparent KD of MS2 coat protein: 108 nM
[2]
  apparent KD of MS2 coat protein: 53.8 nM
Input ligand: none
  apparent KD of MS2 coat protein: 47.8 nM

## UUUUUAUAUGAAGGAUAUACUUAACAUGAGGAUCACCCAUGUGGUGUUGUGAGUGAGUGAGUUUAGUAGAAGGUCAAAGAUUUU [JMF's solution 57] (Eterna round: R96, puzzle: Exclusion NG 2)
Input ligand: FMN 200 uM
  apparent KD of MS2 coat protein: 1550 nM
[2]
  apparent KD of MS2 coat protein: 304 nM
Input ligand: none
  apparent KD of MS2 coat protein: 295 nM

## UGAGUGCUGCGAGGAUAUACAUGAGGAUCACCCAUGUAAAUGUGUGAGGCUUUGCCUCACACAAUGUAGAAGGCGCAGUACUCU [JL ENG2 1.01] (Eterna round: R96, puzzle: Exclusion NG 2)
[2]
  apparent KD of MS2 coat protein: 9.17 nM

## AGUCCUGGAGUUAGGAUAUGGAGUAUCGCUGCGCUUCAGAAGGGACUUGAGGAUCACCCAAGUAGCCGUGAGGG [salish99_bmod_ex4_r4_006] (Eterna round: R97, puzzle: Brourd's mod of Exclusion 4)
Input ligand: FMN 200 uM
  apparent KD of MS2 coat protein: 82.9 nM
Input ligand: none
  apparent KD of MS2 coat protein: 60.2 nM

## AAGGAACAUGAGGAUCACCCAUGUAAGGAUAUGCAAAGAGAGAAAGAAGAAGGAGAAAGCAGAAGGUACAAGGA [JR_Exclu1_Sub072] (puzzle: Exclusion 1)
[3]
  apparent KD of MS2 coat protein: 47.3 nM
[1]
  apparent KD of MS2 coat protein: 36.2 nM
[4]
  apparent KD of MS2 coat protein: 65.8 nM
